{"source": "paper PMC6166240", "assay_in_all_cases": "X-ray crystallography", "key": {"[1]": {"target": "T1, AbdB homeodomain with W motif (crystal construct);Exd homeodomain (crystal construct) (Drosophila;Drosophila, UniProt P09087-2;P40427 ;, |)", "T1 sequence (P09087 369-452, chain 1 of 2)": "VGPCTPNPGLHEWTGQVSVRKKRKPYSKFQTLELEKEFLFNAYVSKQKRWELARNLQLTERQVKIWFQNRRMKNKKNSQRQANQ", "T1 sequence (P40427 237-310, chain 2 of 2)": "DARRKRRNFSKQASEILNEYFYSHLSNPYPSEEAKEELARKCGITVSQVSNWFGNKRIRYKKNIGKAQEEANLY"}, "[2]": {"target": "T1, AbdB homeodomain with W motif (crystal …)", "remark": "listed apart in the source"}, "[3]": {"target": "AbdB homeodomain with W motif (crystal construct) (Drosophila, UniProt P09087-2)", "sequence (P09087 369-452)": "as the sequence (P09087 369-452, chain 1 of 2) above"}, "[4]": {"target": "T1, AbdB homeodomain with W motif (crystal …)", "remark": "listed apart in the source"}, "[5]": {"target": "T1, AbdB homeodomain with W motif (crystal …)", "remark": "listed apart in the source"}}, "note": "Where two headings read alike, the source gives them in different places."}
{"binder": "red (crystal) (dsDNA) DNA 1: GCATGATTTATGAC DNA 2: GTCATAAATCATGC", "values": [{"measurement": "binding result", "setting": "[1]", "value": "binds"}]}
{"binder": "black (crystal) (dsDNA) DNA 1: GCATGATAAATGAC DNA 2: GTCATTTATCATGC", "values": [{"measurement": "binding result", "setting": "[2]", "value": "binds"}, {"measurement": "binding result", "setting": "[3]", "value": "binds"}]}
{"binder": "blue (crystal) (dsDNA) DNA 1: GCATGATTAATGAC DNA 2: GTCATTAATCATGC", "values": [{"measurement": "binding result", "setting": "[4]", "value": "binds"}]}
{"binder": "magenta (crystal) (dsDNA) DNA 1: GCATGATTACGAC DNA 2: GTCGTAATCATGC", "values": [{"measurement": "binding result", "setting": "[5]", "value": "binds"}]}
